Test results: PMC5240591
Where two headings read alike, the source gives them in different places.

Key:
Experiment in all cases: fluorescence polarisation
[1] = target: T4 lysozyme mutant D70N, bimane-labelled at Cys151 (T151Bi) (bacteriophage T4) (UniProt P00720)
[2] = target: T4 lysozyme mutant L99A, bimane-labelled at Cys151 (T151Bi) (bacteriophage T4) (UniProt P00720)
[3] = target: T4 lysozyme mutant L99A/A130S, bimane-labelled at Cys151 (T151Bi) (bacteriophage T4) (UniProt P00720)
[4] = target: T4 lysozyme mutant L99A, bimane-labelled at Cys151 (T151Bi) (bacteriophage T4) (UniProt P00720); remark: listed apart in the source
[5] = target: T4 lysozyme mutant L99A, bimane-labelled at Cys151 (T151Bi) (bacteriophage T4) (UniProt P00720); remark: listed apart in the source
[6] = target: T4 lysozyme mutant L99A/A130S, bimane-labelled at Cys151 (T151Bi) (bacteriophage T4) (UniProt P00720); remark: listed apart in the source
[7] = target: T4 lysozyme mutant L99A, bimane-labelled at Cys151 (T151Bi) (bacteriophage T4) (UniProt P00720); remark: listed apart in the source
[8] = target: T4 lysozyme mutant L99A/A130S, bimane-labelled at Cys151 (T151Bi) (bacteriophage T4) (UniProt P00720); remark: listed apart in the source

Row | Substance | Kd [1] [nM] | Kd [2] [nM] | stoichiometry N [2] | Kd [3] [nM] | stoichiometry N [3] | Kd [4] [nM] | Kd [5] [nM] | Kd [6] [nM] | Kd [7] [nM] | stoichiometry N [7] | stoichiometry N [4] | Kd [8] [nM]
1 | rat αA^ins-crystallin (from UniProt P24623 1-196) (natural protein) | 6820 | 17 | 0.33 | 64 | 0.32 | – | – | – | – | – | – | –
2 | zebrafish αA-crystallin (from UniProt Q8UUZ6 1-173) (natural protein) | 88900 | 8160 | – | 6200 | 1.25 | 8320 | 50700 | 20900 | – | – | – | –
3 | human αB-crystallin (from UniProt P02511 1-175) (natural protein) | – | – | – | – | – | 28000 | – | – | – | – | – | –
4 | zebrafish αBb-crystallin (from UniProt Q6DG35 1-165) (natural protein) | 4850 | 1340 | – | 120 | 0.33 | – | – | 4940 | – | – | – | 29000

Second part, the substance after the results:

Row | Kd [1] [nM] | Kd [2] [nM] | stoichiometry N [2] | Kd [3] [nM] | stoichiometry N [3] | Kd [4] [nM] | Kd [5] [nM] | Kd [6] [nM] | Kd [7] [nM] | stoichiometry N [7] | stoichiometry N [4] | Kd [8] [nM] | Substance
5 | – | – | – | – | – | 71 | – | – | – | – | – | – | triply phosphorylated analog (S19D/S45D/S59D) of human αB-crystallin (from UniProt P02511 1-175) (natural protein)
6 | 1870 | 58 | 0.47 | 63 | 0.65 | 68 | 920 | 210 | 12 | 0.64 | 0.65 | – | zebrafish αBa-crystallin, population αBa-S (from UniProt Q9PUR2 1-168) (natural protein)
7 | 14600 | 2430 | – | 2370 | – | 1900 | – | – | – | – | – | – | human αA-crystallin (from UniProt P02489 1-173) (natural protein)
8 | – | – | – | – | – | 38 | – | – | – | – | – | – | triply phosphorylated analog (S15D/S78D/S82D) of human Hsp27 (from UniProt P04792 1-205) (natural protein)
